Results as given in US20260167679A1, “FUSION PROTEIN TARGETING MITOCHONDRIA, METHOD OF MAKING AND USE THEREOF” (UNIVERSITY OF ROCHESTER, priority 2020, published 2026).

What was measured:
[1] = test system: isolated C. elegans mitochondria; assay: Mitochondrial matrix pH measurement (BCECF-AM); format: biochemical, Caenorhabditis elegans; details: mtON activation by light
Description: The ratiometric pH indicator BCECF-AM (Thermo Fisher, B1170) was used to measure pH changes in the mitochondrial matrix in response to succinate respiration or mtON activation. Isolated mitochondria (˜200 μl per isolation) were incubated at room temperature with 50 μM BCECF-AM for 10 min with periodic mixing. Mitochondria were then pelleted at 7,000 g for 5 min at 4° C., and isolation media replaced and pelleted again to remove extramitochondrial BCECF-AM. Isolated mitochondrial suspensions were then assayed under the same conditions as in the mitochondrial membrane potential measurements described above. Ratiometric fluorescent signal was measured by Cary Eclipse Fluorescence Spectrophotometer (Agilent Technologies) using 440 and 490 nm excitation wavelengths and 545 nm emission. The fluorescence intensity ratio at 545 nm of 490/440 nm excitation wavelengths was used to represent pH changes in the mitochondrial matrix. Light treatment was 0.16 J/cm^2 (XCite LED, 0.02 mW/mm^2), and 2 μM FCCP was used at the end of each trace to establish baseline signal.

[2] = test system: isolated C. elegans mitochondria; assay: Mitochondrial O2 consumption (Clark-type electrode); format: biochemical, Caenorhabditis elegans; details: isolated mitochondria fueled with substrates, mtON activated
Description: O2 consumption was measured using a Clark-type O2 electrode (S1 electrode disk, DW2/2 electrode chamber and Oxy-Lab control unit, Hansatech Instruments, Norfolk UK) at 25° C. Isolated mitochondria were stirred in MRB at 1 mg/ml with 1 mg/ml fat-free BSA. Substrates and inhibitors were added by syringe port (100 μM ADP, 2 μM rotenone, 5 mM succinate). Given excess succinate as substrate for ETC respiration, we measured the amount of O2 required to convert 50 nmol of ADP to ATP and established a baseline for comparison. To test mtON activity, mitochondria were illuminated as in the ATP measurement, for 1, 5, or 10 min in the presence of ADP without succinate to allow for mtON conversion of ADP to ATP. Any remaining ADP was then converted using 02-dependent ETC respiration upon succinate addition. Slopes were calculated from plots of O2 concentration versus time to give rates of 02 consumption during ADP respiration, ADP+succinate respiration, and respiration after ADP had been entirely consumed. The intersections of these three rates were used to calculate total amount of O2 consumed during ADP+succinate respiration. Light activation of mitochondria (XCite LED, 0.02 mW/mm^2) during ADP respiration alone was carried out for differing lengths of time to test the ability of mtON to drive ADP consumption before succinate was added. […]

C. elegans [3] = assay: ETC inhibitor assays, survival of animals; format: in vivo, Caenorhabditis elegans
Description: Experiments were performed on at least three separate days, using 15-100 young adult animals per plate. Seeded plates were supplemented with rotenone (50 μM final concentration), antimycin A (50 μM final concentration), or oligomycin A (31 μM final concentration) 24 h before animals were transferred onto them. For azide toxicity, animals were placed in M9 buffer with 250 mM azide. Control plates were kept in the dark, and experimental plates were exposed to 1 Hz light (Quantum LED, 0.02 mW/mm^2) for the duration of the experiment. For all toxins, animals that were moving or those that moved in response to a light touch to the head were scored as alive. For rotenone, surviving animals were scored after 5 h. For antimycin A, animals were scored 16 h after exposure. For azide, animals were exposed for 1 h in M9 and allowed to recover for 1 h on a seeded culture plate and then survival was scored. Azide experimental plates were exposed to light (XCite LED, 0.19 mW/mm^2) for the duration of azide treatment and recovery. […]. For oligomycin A, animals were scored 18 h after exposure.
Experiments were carried out using a hypoxic chamber (Coy Laboratory Products, 5%/95% H2/N2 gas, palladium catalyst) at 26° C. with 50-100 animals per plate. O2 was <0.01%. Hypoxic preconditioning (PC) duration was 4 h, and control animals were incubated at 26° C. in room air for the same time. 1 Hz illumination (Quantum LED, 0.02 mW/mm^2) was carried out during PC period or during the hypoxic period. Hypoxic exposure was for 18.5, 21 h after PC. Twenty-four hours after hypoxia exposure, animals that were moving or those that moved in response to a light touch to the head were scored as alive. Data from days where PC was at least 15% effective for both +ATR and −ATR were used. Animals supplemented with ATR were allowed to lay eggs onto plates with no ATR that were subsequently used for HR experiments to minimize confounding effects of ATR. ATR from the parent animal was sufficient to provide active mtON in progeny as tested by the azide toxin assay described above. […] FCCP dissolved in ethanol was deposited onto seeded NGM plates.

C. elegans [4] = assay: Locomotion assay (body bends); format: in vivo, Caenorhabditis elegans; details: mtON activation
Description: […] One body bend was scored as a deflection of direction of motion of the posterior pharyngeal bulb. For AMPK activation, animals were placed on plates containing 1 mM AICAR 4 h before counting body bends. AICAR was dissolved in M9 buffer, added directly onto OP50 seeded plates, and allowed to dry. Illumination was continuous through measurements (MVX, 0.265 mW/mm^2).

C. elegans [5] = assay: Healthspan: mobility on solid media and in liquid with age; format: in vivo, Caenorhabditis elegans
Source text: Light treatment began at day 1 of adulthood for all experiments, a, Survival curves of mtON-expressing animals (extrachromosomal array). […] One-way ANOVA with Tukey's test; n=30 animals for day 4 conditions and 40 animals for day 10. […] One-way ANOVA with Tukey's test, day 10 no ATR light versus day 10 ATR light; P=0.002, all other significant comparisons, P=0.0001; n=32, 32, 40 and 40 animals for each violin from left to right. Data are median±quartiles. f, Model showing effects of mtON activation in vivo. The dotted arrow represents the molecular mechanisms to be investigated that link Δψm to aged physiology.

B1: mtON: fusion of the 187 N-terminal amino acids of mouse IMMT1 to the light-activated proton pump (Mac) from Leptosphaeria maculans (protein)
chain: MLRACQLSGVTVAAQSCLCGKFVLRPLRPCRRYSTSSSSGLTAGKIAGAGLLFVGGGIGGTILYAKWDSHFRESVEKTIPYSDKLFGMVLGSAPYTVPLPKKPVQSGPLKISSVSEVMKDSKLPVAQSQKTKGDTPASAASTGAAQIISAAGDTLSVPAPAVQHEDTIKTECPNTNEGKSTSETTEEPAGLIVDQFEEVLMKTSQLFPLPTATQSAQPTHVAPVPTVLPDTPIYETVGDSGSKTLWVVFVLMLIASAAFTALSWKIPVNRRLYHVITTIITLTAALSYFAMATGHGVALNKIVIRTQHDHVPDTYETVYRQVYYARYIDWAITTPLLLLDLGLLAGMSGAHIFMAIVADLIMVLTGLFAAFGSEGTPQKWGWYTIACIAYIFVVWHLVLNGGANARVKGEKLRSFFVAIGAYTLILWTAYPIVWGLADGARKIGVDGEIIAYAVLDVLAKGVFGAWLLVTHANLRESDVELNGFWANGLNREGAIRIGEDDGAR
modifications: Synthetic Complete mtON fusion protein sequence
- mitochondrial matrix pH (BCECF-AM ratio) [1]: matrix pH increased
- oxygen needed to make ATP [2]: decreased reliance on oxygen to make ATP
- survival (C. elegans [3]; 31 μM oligomycin A, scored 18 hours later): No significant differences
- survival (C. elegans [3]; 50 μM rotenone for 5 hours, +ATR +light): greater than the ATR alone effect
- survival (C. elegans [3]; azide toxin assay, progeny of ATR-supplemented parents, +ATR +light): 66.8%
- survival of animals exposed to ETC toxins (C. elegans [3]; mtON active vs controls): survived more
- locomotion off food (C. elegans [4]; animals off food): suppressing their movement
- locomotion speed (body bends per minute) (C. elegans [4]; complex I mutant background (gas-1), in presence of food): rescued the decreased locomotion
- locomotion on solid media (C. elegans [5]; day 4 and day 10, mtON activation): did not affect locomotion
- mobility in liquid with age (C. elegans [5]; day 10, mtON activation): improved mobility
